Measurements reported in patent US20220356221A1 (ASKGENE PHARMA, published 2022).

Biological target: human IL-12 receptor on HEK-Blue IL-12 reporter cells (human, UniProt P42701 24-662; Q99665 24-862)
Experiment: cell-based or functional assay

Chain of human IL-12 receptor on HEK-Blue IL-12 reporter cells (Q99665 24-862, chain 2 of 2, other chains not shown): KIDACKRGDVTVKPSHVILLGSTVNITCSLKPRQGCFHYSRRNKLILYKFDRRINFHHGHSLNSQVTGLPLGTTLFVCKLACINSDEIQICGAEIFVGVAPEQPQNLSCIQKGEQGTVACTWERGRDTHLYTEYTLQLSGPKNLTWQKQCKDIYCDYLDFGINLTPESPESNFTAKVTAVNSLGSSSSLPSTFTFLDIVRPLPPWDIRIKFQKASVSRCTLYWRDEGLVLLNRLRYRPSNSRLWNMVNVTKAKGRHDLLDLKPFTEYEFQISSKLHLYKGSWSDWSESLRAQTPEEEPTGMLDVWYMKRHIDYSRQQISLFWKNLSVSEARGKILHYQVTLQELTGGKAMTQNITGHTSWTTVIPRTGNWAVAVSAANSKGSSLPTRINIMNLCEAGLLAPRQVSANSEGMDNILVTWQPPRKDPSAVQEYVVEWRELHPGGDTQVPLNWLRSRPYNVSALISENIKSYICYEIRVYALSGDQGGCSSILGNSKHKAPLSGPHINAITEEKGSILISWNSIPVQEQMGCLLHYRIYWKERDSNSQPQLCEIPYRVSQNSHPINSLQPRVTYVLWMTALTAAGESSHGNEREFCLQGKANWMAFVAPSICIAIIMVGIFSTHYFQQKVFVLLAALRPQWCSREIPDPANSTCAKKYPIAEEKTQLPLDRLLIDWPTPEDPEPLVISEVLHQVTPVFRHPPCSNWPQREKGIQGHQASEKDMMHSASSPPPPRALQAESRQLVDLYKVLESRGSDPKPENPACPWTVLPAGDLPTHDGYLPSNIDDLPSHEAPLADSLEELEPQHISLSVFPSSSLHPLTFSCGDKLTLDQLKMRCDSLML

EC50 in the cell-based IL-12 reporter assay (HEK-Blue IL-12, STAT4-inducible SEAP, OD630): ~0.05 nM
fold activation based on the EC50 values (after protease treatment against prior to it): ~18 fold
B1: IL-12 prodrug JR3.105.5 after protease treatment (activated) (Fc fusion)
chain: DKTHTCPPCPAPELLGGPSVFLFPPKPKDTLMISRTPEVTCVVVDVSHEDPEVKFNWYVDGVEVHNAKTKPREEQYASTYRVVSVLTVLHQDWLNGKEYKCKVSNKALPAPIEKTISKAKGQPREPQVYTLPPCRDELTKNQVSLWCLVKGFYPSDIAVEWESNGQPENNYKTTPPVLDSDGSFFLYSKLTVDKSRWQQGNVFSCSVMHEALHNHYTQKSLSLSPGAGGGGSGGGGSGGGGSIWELKKDVYVVELDWYPDAPGEMVVLTCDTPEEDGITWTLDQSSEVLGSGKTLTIQVKEFGDAGQYTCHKGGEVLSHSLLLLHKKEDGIWSTDILKDQKEPKNKTFLRCEAKNYSGRFTCWWLTTISTDLTFSVKSSRGSSDPQGVTCGAATLSAERVRGDNKEYEYSVECQEDSACPAAEESLPIEVMVDAVHKLKYENYTSSFFIRDIIKPDPPKNLQLKPLKNSRQVEVSWEYPDTWSTPHSYFSLTFCVQVQGKSKREKKDRVFTDKTSATVICRKNASISVRAQDRYYSSSWSEWASVPCSGGGGSGGGGSGGGGSRNLPVATPDPGMFPCLHHSQNLLRAVSNMLQKARQTLEFYPCTSEEIDHEDITKDKTSTVEACLPLELTKNESCLNSRETSFITNGSCLASRKTSFMMALCLSSIYEDLKMYQVEFKTMNAKLLMDPKRQIFLDQNMLAVIDELMQALNFNSETVPQKSSLEEPDFYKTKIKLCILLHAFRIRAVTIDRVMSYLNAS
